From patent US20190367619A1 (ARGENX, published 2019) come the findings set out here.

First the molecules themselves.
B1: 2C07 mouse IgG1 (antibody, V domains shown)
VH: ELQLVESGGGLVQPGGSLRLSCAASGFTFSSYAMSWVRQAPGKGLEWVSNINSGGGSTGYADSVKGRFTISRDNAKNTLYLQMNSLKPEDMAVYYCAKYLRTYYPNAAFGMDYWGKGTLVTVSS
VL: QAVLTQPSAVSVSLGQTARITCQGGNFGRYYASWYQQKPGQAPVLVIYRDSERPSGIPERFSGSSSGDTATLTISGAQAEDEADYYCQSGRSSDNAVFGGGTHLTGL
notes: VH on mouse IgG1 heavy chain constant domains (CH1-CH2-CH3), VL on mouse lambda light chain constant domain; also called 2C07 mIgG1
B2: 6B06 mouse IgG1 (antibody, V domains shown)
VH: QVQRQESGPGLVKPSQTLSLTCTVSGGSITTNYYSWSWIRQPPGKGLEWIGYIAYSGSTSYSPSLKSRTSISRDTSNNQFSLQLSSVTPEDTAVYYCARSRSSPTTFGMDYWGKGTLVTVSS
VL: B1 VL with Q1S, A2S, V3A, A32V, Q36T, R49Q, S55T, R91T, A96I, G106V
notes: also called 6B06 mIgG1
B3: 6F06 mouse IgG1 (antibody, V domains shown)
VH: QVQLVESGGGLVQPGGSLRLSCAASEFTFSRYSMSWVRQAPGKGLEWVSTINSGGGSTSYVDSVKGRFTISRDNAKNTLYLQMNSLKPEDTAVYYCTKSQGGISFSTQYGMDYWGKGTLVTVSS
VL: B1 VL with Q1N, A2F, V3M, S33N, R49K, A83S, R91S, S92V, T105A, G106V
notes: also called 6F06 mIgG1
B4: 6E10 mouse IgG1 (antibody, V domains shown)
VH: QLQLVESGGGLVQPGGSLRLSCAASGFTFSSYWMYWVRQAPGKGLEWVSAINTGGGSTYYADSVKGRFTISRDNAKNTLYLQMNSLKPEDTALYYCARAGSGVAGTGYDYWGQGTQVTVSS
VL: B1 VL with A2P, T5N, R29Y, A32V, E52G, R91S, G106V
notes: also called 6E010; 6E10 mIgG1
B5: 6A08 mouse IgG1 (antibody, V domains shown)
VH: QVQLVESGGGLVQPGGSLRLSCAASGFTFSSYAMSWVRQAPGKGPEWVSAINRGGGSTYYADSVKGRFTISRDNAKNTLYLQMNSLKPEDAAVYYCATPGDRLWYYRYDYWGQGAQVTVSS
VL: QTVVTQEPSLSVSPGGTVTLTCGLSSGSVTSSNYPGWYQQTPGQAPRLLIYNTNSRYSGVPNRFSGSISGNKAALIISGAQPEDEADYHCALNRVRGTYRVFGGGTHLTVL
notes: also called 6A08 mIgG1

Substitutions are numbered along the chain they refer to.

The target in one assay is T1, human galectin-10-His (recombinant human galectin-10 with TEV-cleavable N-terminal His-tag) (human).
T1 construct: SEC-MALLS: dimer in solution; also called Gal10-His; humanGal10-His
T1 chain: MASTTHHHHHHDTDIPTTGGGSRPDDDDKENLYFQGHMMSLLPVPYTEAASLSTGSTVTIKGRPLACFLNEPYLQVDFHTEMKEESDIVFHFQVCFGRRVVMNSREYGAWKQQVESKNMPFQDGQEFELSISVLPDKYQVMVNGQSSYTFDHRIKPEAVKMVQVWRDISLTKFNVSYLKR
Nature of the assay: BLI tandem on galectin-10-His; competitor: saturating 6A08 mIgG1 (10 ug/mL). The protocol:
(§1) In order to identify the galectin-10 binding sites of the different clones, an epitope mapping method (TANDEM), using the BLI technology, was established. Briefly, the galectin-10-His was captured on anti-HIS 1K sensor tips, before incubation with an excess of one antibody (called the “saturating” antibody) then directly transferred to a solution containing the “competitor” antibody at a suboptimal concentration. If the “saturating” and the competitor antibody bind to the same binding sites, no binding of “competitor” will be detected (expressed in nm shift).
In the case of B1, the “binding signal (nm)” value was -0.01 nm.
Same read-out and setting: in the case of B2 it was 0.02 nm; in that of B3, 0 nm; in that of B4, 0.04 nm.
For the molecule B5, the “binding signal (nm)” value is -0.04 nm.

For another assay, the target named is T1, human galectin-10-His (recombinant …). Nature of the assay: BLI tandem on galectin-10-His; competitor: saturating 6A05 mIgG1 (10 ug/mL). The protocol: as §1
As for B1, the “binding signal (nm)” value worked out at 0.04 nm.
On the same count and under the same terms, in the case of B2 it was 0.06 nm; in that of B3, 0.05 nm.
Take B4: the “binding signal (nm)” value stood at 0.09 nm.
Regarding B5, the “binding signal (nm)” value turned out to be 0.05 nm.

For the next assay the target is unchanged. Nature of the assay: BLI tandem on galectin-10-His; isotype control as saturating antibody (10 ug/mL). Here is the method:
as §1
In the case of B1, the “binding signal (nm)” value came to 0.73 nm.
For B2, the “binding signal (nm)” value turned out to be 0.94 nm.
Still for that read-out and setting: then B3, with 1.15 nm; and B4, with 1.34 nm.
Regarding B5, the “binding signal (nm)” value amounted to 1.04 nm.

The target is the same in the next assay. Nature of the assay: BLI tandem on galectin-10-His; competitor: saturating 4E08 mIgG1 (10 ug/mL). The protocol: as §1
With B1, the “binding signal (nm)” value was -0.05 nm.
Same read-out and setting: in the case of B2 it was 0.03 nm; in that of B3, 0.02 nm; in that of B4, 0.1 nm.
Still for that read-out and setting: in the case of B5 it was -0.05 nm.

Another assay shares this target. Nature of the assay: BLI tandem on galectin-10-His; competitor: saturating 6E10 mIgG1 (10 ug/mL). Here is the method: as §1
B1: the “binding signal (nm)” value is -0.04 nm.
The same measure, in the same setting: in the case of B2 it was -0.02 nm; in that of B3, -0.03 nm; in that of B4, 0 nm.
Still for that read-out and setting: in the case of B5 it was -0.05 nm.

For a further assay the target is unchanged. Nature of the assay: BLI tandem on galectin-10-His; competitor: saturating 6B06 mIgG1 (10 ug/mL). Here is the method:
as §1
On to B1, for which the “binding signal (nm)” value was 0.04 nm.
Consider B2, for which the “binding signal (nm)” value worked out at 0.03 nm.
On the same count and under the same terms, in the case of B3 it was 0.03 nm; in that of B4, 0.04 nm.
On to B5, for which the “binding signal (nm)” value stood at 0.05 nm.

The next assay concerns the target T2, TEV-cleaved wild-type recombinant human galectin-10 (soluble, in Fab complexes, or as recombinant galectin-10 … (human, UniProt Q05315 1-142)).
T2 sequence: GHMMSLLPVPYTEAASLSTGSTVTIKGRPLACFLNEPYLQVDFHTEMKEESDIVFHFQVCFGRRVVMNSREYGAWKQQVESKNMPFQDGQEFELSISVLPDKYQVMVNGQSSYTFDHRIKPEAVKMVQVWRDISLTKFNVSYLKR
Nature of the assay: cell-based or functional assay.
Turning to B1, the “100% Solubilization of CLC (Conc uM)” value was greater than 2.2 µM.
As to B2, the “100% Solubilization of CLC (Conc uM)” value is greater than 10 µM.
On the same count and under the same terms, in the case of B3 it was 7.57 µM.
Still for that read-out and setting: then B4, with 10.5 µM; and B5, with greater than 10 µM.

The next assay has as its target T1, human galectin-10-His (recombinant …). Nature of the assay: ELISA, mouse IgG1 on coated galectin-10-His (0.2 ug/mL). The protocol:
In a similar setup to that used during the characterization of the scFv-human Fc molecules, the relative binding affinities of the 10 mouse IgG1 antibodies were analyzed by ELISA. A Maxisorp plate was coated overnight with 0.2 μg/mL of galectin-10-His. Then a serial dilution of each clone (from 100 nM, dilution 1/4, 12 points of dilutions) was incubated on coated galectin-10. After several washing steps, detection of the bound mouse IgG1 was carried out with an anti-mouse Fc-HRP antibody. Absorbance was measured at 450 nm (reference at 620 nm) with Tecan instrument. A mouse IgG1 isotype control was used as negative control. A polyclonal anti-galectin-10 antibody was used as positive control for the coating of galectin-10. The raw data (OD values) were plotted on GraphPad Prism 7.01. The EC50 values for each antibody, calculated with a non-linear regression (log(agonist) vs. response Variable slope (four parameters)), are reported in Table 7 below.
A general note: In an ELISA, binding on a coated surface is turned into a signal by an enzyme label.
Consider B1, for which the Bmax worked out at 2.95 OD and the concentration for a half-maximal effect (EC50) came to 0.08 nM.
On the same counts, the results for B2 are 3.28 OD and 0.08 nM.
On the same counts, the results for B3 are 2.93 OD and 0.08 nM.
On the same counts, the results for B4 are 2.4 OD and 0.17 nM.
As for B5, the Bmax was 3.2 OD and the EC50 worked out at 0.15 nM.

The target is the same in a further assay. Nature of the assay: SPR Biacore T3000, mouse IgG1 captured by anti-mouse Fc, galectin-10-His as analyte. The protocol:
The binding capacity of the mouse IgG1 antibodies to galectin-10 was analyzed on Biacore T3000. For this purpose, a capture approach was set up. A CM5 Chip was coated with polyclonal anti-mouse Fc at 8000 RU, then a fixed concentration of the mouse IgG1 antibody panel (1.5 μg/mL), diluted in HBS-EP pH7.4, was captured to reach a binding signal around 150 RU. Finally, a serial dilution of galectin-10-His (serial dilution, 1 over 2 from 5 μg/mL) diluted in HBS-EP pH7.4 was injected. Raw data were analyzed via BIA evaluation software with a blank subtraction (4-3). The kd/KD and Rmax of each mAb to galectin-10-His was determined using the Fit Kinetics simultaneous ka/kd/Binding with mass transfer/Local Rmax on BIA evaluation software.
A general note: In SPR one partner is held on a chip, and binding of the other changes the refractive index at the surface.
Regarding B1, the dissociation constant Kd was determined as 0.5 nM and the koff turned out to be 0.00036 s⁻¹.
Consider B2, for which the Kd was determined as 0.3 nM and the koff stood at 0.00306 s⁻¹.
Consider B3, for which the Kd worked out at 0.7 nM and the koff was found to be 0.00487 s⁻¹.
In the case of B4, the Kd came out at 0.5 nM and the koff is 0.00082 s⁻¹.
Taken in the same sequence, the figures for B5 were 1 nM and 0.00067 s⁻¹.

The target is the same in a further assay. Nature of the assay: BLI tandem on galectin-10-His; competitor: saturating 2F09 mIgG1 (10 ug/mL). Here is the method: as §1
Regarding B1, the “binding signal (nm)” value was -0.01 nm.
The same measure, in the same setting: then B2, with 0 nm; and B3, with 0 nm.
Consider B4, for which the “binding signal (nm)” value stood at 0 nm.
With B5, the “binding signal (nm)” value came to 0 nm.

For another assay the target is unchanged. Nature of the assay: BLI tandem on galectin-10-His; competitor: saturating 2C07 mIgG1 (10 ug/mL). Here is the method:
as §1
As to B1, the “binding signal (nm)” value came to 0.03 nm.
Still for that read-out and setting: then B2, with 0.04 nm; and B3, with 0.03 nm; and B4, with 0.06 nm.
Same read-out and setting: in the case of B5 it was 0.05 nm.

The target is the same in another assay. Nature of the assay: BLI tandem on galectin-10-His; competitor: saturating 1D11 mIgG1 (10 ug/mL). Here is the method: as §1
Turning to B1, the “binding signal (nm)” value is 0.04 nm.
For the molecule B2, the “binding signal (nm)” value worked out at 0.07 nm.
Still for that read-out and setting: then B3, with 0.06 nm.
Same read-out and setting: in the case of B4 it was 0.1 nm; in that of B5, 0.05 nm.

The next assay shares this target. Nature of the assay: BLI tandem on galectin-10-His; buffer in place of the saturating antibody. The protocol:
as §1
Regarding B1, the “binding signal (nm)” value turned out to be 0.8 nm.
Same read-out and setting: in the case of B2 it was 0.98 nm; in that of B3, 1.22 nm.
For B4, the “binding signal (nm)” value came to 1.38 nm.
On the same count and under the same terms, in the case of B5 it was 1.08 nm.

For another assay the target is unchanged. Nature of the assay: BLI tandem on galectin-10-His; competitor: saturating 1C09 mIgG1 (10 ug/mL). The protocol: as §1
With B1, the “binding signal (nm)” value came to 0 nm.
Still for that read-out and setting: then B2, with 0.01 nm; and B3, with 0 nm.
The same measure, in the same setting: then B4, with 0.03 nm; and B5, with 0 nm.

For the next assay the target is unchanged. Nature of the assay: BLI tandem on galectin-10-His; competitor: saturating 6F06 mIgG1 (10 ug/mL). Here is the method:
as §1
With B1, the “binding signal (nm)” value came out at 0.04 nm.
As to B2, the “binding signal (nm)” value came to 0.05 nm.
On to B3, for which the “binding signal (nm)” value came to 0.04 nm.
Still for that read-out and setting: in the case of B4 it was 0.07 nm.
B5: the “binding signal (nm)” value was 0.05 nm.

A word on the EC50: it is the concentration needed to bring the measured effect to its halfway point. Broadly, the Kd is the concentration at which binding is half-saturated. What is called koff is the rate constant with which the complex falls apart.
